Test results published in patent EP4361176A1.

Experiments:
[1] = biological target: human FcγRIIa R extracellular domain (human) (UniProt P12318); assay: SPR; KD for FcγRIIb divided by KD for this FcγR
[2] = biological target: human FcγRIIIa V extracellular domain (human) (UniProt P08637); assay: SPR; KD for FcγRIIb divided by KD for this FcγR
[3] = biological target: human FcγRIIa R extracellular domain (human) (UniProt P12318); assay: SPR; KD of G1d divided by KD of this antibody
[4] = biological target: human FcγRIIIa V extracellular domain (human) (UniProt P08637); assay: SPR; KD of G1d divided by KD of this antibody
[5] = biological target: human FcγRIIa R extracellular domain (human) (UniProt P12318); assay: SPR (Biacore 8K+), captured antibody, 1:1 Langmuir model
[6] = biological target: human FcγRIIIa V extracellular domain (human) (UniProt P08637); assay: as above
[7] = biological target: human FcγRIIb extracellular domain with C-terminal His-tag (human) (UniProt P31994); assay: SPR (Biacore T200), FcγRIIb 1000 nM, amount bound per unit captured antibody
[8] = biological target: human FcγRIIb extracellular domain with C-terminal His-tag (human) (UniProt P31994); assay: SPR; binding amount / that of MDX10D1H-G1m/MDX10D1L-k0MT

H240-GASDALIE/L73-k0 (antibody), sequence (heavy): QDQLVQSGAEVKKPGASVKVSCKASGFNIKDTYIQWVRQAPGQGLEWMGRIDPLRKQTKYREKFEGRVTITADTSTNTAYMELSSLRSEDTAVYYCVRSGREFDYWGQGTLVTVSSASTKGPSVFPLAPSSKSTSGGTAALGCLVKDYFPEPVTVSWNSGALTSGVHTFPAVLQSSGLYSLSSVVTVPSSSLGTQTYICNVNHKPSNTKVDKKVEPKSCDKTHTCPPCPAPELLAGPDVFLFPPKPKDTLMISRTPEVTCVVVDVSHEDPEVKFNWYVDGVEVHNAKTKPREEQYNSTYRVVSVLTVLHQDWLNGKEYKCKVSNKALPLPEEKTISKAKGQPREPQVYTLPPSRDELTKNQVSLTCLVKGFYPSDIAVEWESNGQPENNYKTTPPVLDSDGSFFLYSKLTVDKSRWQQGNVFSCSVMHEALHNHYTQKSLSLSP
H240-GASDALIE/L73-k0 (antibody), sequence (light): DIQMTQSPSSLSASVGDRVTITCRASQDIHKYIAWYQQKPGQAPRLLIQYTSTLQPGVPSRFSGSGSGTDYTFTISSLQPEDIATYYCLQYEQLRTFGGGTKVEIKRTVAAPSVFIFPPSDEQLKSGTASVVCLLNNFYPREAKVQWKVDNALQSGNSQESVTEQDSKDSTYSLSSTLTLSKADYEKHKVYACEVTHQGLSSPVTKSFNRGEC
human FcγRIIb extracellular domain with C-terminal His-tag (human), sequence (P31994 43-217): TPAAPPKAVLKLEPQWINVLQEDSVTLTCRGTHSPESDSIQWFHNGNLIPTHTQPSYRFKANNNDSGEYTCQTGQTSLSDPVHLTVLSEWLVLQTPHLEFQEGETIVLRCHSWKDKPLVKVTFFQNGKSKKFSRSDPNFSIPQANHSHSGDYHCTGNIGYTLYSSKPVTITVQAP

A/I ratio (KD for FcγRIIb divided by KD for each FcyR) [1] | A/I ratio (KD for FcγRIIb divided by KD for each FcyR) [2] | Relative value to KD between G1d and hFcgRs [3] | Relative value to KD between G1d and hFcgRs [4] | Kd [5] | Kd [6] | Binding amount [7] | Relative binding amount [8] | Substance
16.5 | 176 | 10.3 | 23.6 | 161 nM | 15.2 nM | – | – | H240-GASDALIE/L73-k0 (antibody)
– | – | – | – | – | – | 0.012 | – | MDX10D1H-G1m/MDX10D1L-k0MT (antibody)
– | – | – | – | – | – | 0.072 | 5.8 | MDX10D1H-GASDIE/MDX10D1L-k0MT (antibody)
